{"source": "the RNAGym collection of RNA variant scans (doi:10.1093/molbev/msab373)", "parents": {"B1": {"name": "Azoarcus group I ribozyme (parent)", "chain": "GUGCCUUGCGCCGGGAAACCACGCAAGGGAUGGUGUCAAAUUCGGCGAAACCUAAGCGCCCGCCCGGGCGUAUGGCAACGCCGAGCCAAGCUUCGGCGCCUGCGCCGAUGAAGGUGUAGAGACUAGACGGCACCCACCUAAGGCAAACGCUAUGGUGAAGGCAUAGUCCAGGGAGUGGCGAAAGUCACACAAACCGG"}}}
{"variants_of": "B1", "experiment": "reverse-splicing fitness (ratio to wild type); higher = more active; in vitro selection; Mg2+ level not given", "outline": "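An in vitro group I ribozyme library with randomized positions was T7-transcribed and gel-purified. In triplicate, 10 pmol RNA in EPPS pH 7.5 was reacted with 50 pmoles of a 30-nt RNA substrate for 1 h at 37 °C across several added MgCl2 levels (1–48 mM), then stopped with EDTA. Products were reverse transcribed from a substrate-complementary primer, PCR-amplified and sequenced (HiSeq 4000). Fitness is a variant's read proportion after selection over that before, normalised to wild type.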"}
{"variant": "C150A C169A U176A", "reverse-splicing fitness": 0.0214}
{"variant": "C150A C169A U176C", "reverse-splicing fitness": 0.0227}
{"variant": "C150A C169A U176G", "reverse-splicing fitness": 0.00665}
{"variant": "A145G C150G U176A", "reverse-splicing fitness": 0.256}
{"variant": "A145G C150G U176G", "reverse-splicing fitness": 0.0658}
{"variant": "A145G C150G U176C", "reverse-splicing fitness": 0.371}
{"variant": "A145U C150A C169G U176C", "reverse-splicing fitness": 0.0285}
{"variant": "A145U C150A C169G U176G", "reverse-splicing fitness": 0.00588}
{"variant": "A145U C150A C169G U176A", "reverse-splicing fitness": 0.0176}
{"variant": "C150U C169U U176G", "reverse-splicing fitness": 0.0109}
{"variant": "C150U C169U U176A", "reverse-splicing fitness": 0.0877}
{"variant": "C150U C169U U176C", "reverse-splicing fitness": 0.128}
{"variant": "A145U C150A C169U U176C", "reverse-splicing fitness": 0.0345}
{"variant": "A145U C150A C169U U176G", "reverse-splicing fitness": 0.00699}
{"variant": "A145U C150A C169U U176A", "reverse-splicing fitness": 0.031}
{"variant": "A145C C150A", "reverse-splicing fitness": 0.321}
{"variant": "A145C C150G", "reverse-splicing fitness": 0.525}
{"variant": "A145C C150U", "reverse-splicing fitness": 0.695}
{"variant": "C169G U176A", "reverse-splicing fitness": 0.0721}
{"variant": "C169G U176G", "reverse-splicing fitness": 0.00806}
{"variant": "C169G U176C", "reverse-splicing fitness": 0.137}
{"variant": "A145C C150G C169A", "reverse-splicing fitness": 0.0221}
{"variant": "A145C C150G C169G", "reverse-splicing fitness": 0.0445}
{"variant": "A145C C150G C169U", "reverse-splicing fitness": 0.0739}
{"variant": "A145C C150U C169G U176C", "reverse-splicing fitness": 0.0444}
{"variant": "A145C C150U C169G U176G", "reverse-splicing fitness": 0.00658}
{"variant": "A145C C150U C169G U176A", "reverse-splicing fitness": 0.0403}
{"variant": "A145C C150U C169A U176A", "reverse-splicing fitness": 0.0158}
{"variant": "A145C C150U C169A U176G", "reverse-splicing fitness": 0.00607}
{"variant": "A145C C150U C169A U176C", "reverse-splicing fitness": 0.0196}
{"variant": "C150A C169U", "reverse-splicing fitness": 0.061}
{"variant": "C150A C169G", "reverse-splicing fitness": 0.0379}
{"variant": "C150A C169A", "reverse-splicing fitness": 0.0251}
{"variant": "A145G C169U U176A", "reverse-splicing fitness": 0.123}
{"variant": "A145G C169U U176G", "reverse-splicing fitness": 0.0104}
{"variant": "A145G C169U U176C", "reverse-splicing fitness": 0.174}
{"variant": "C150U", "reverse-splicing fitness": 0.878}
{"variant": "C150A", "reverse-splicing fitness": 0.484}
{"variant": "C150G", "reverse-splicing fitness": 0.42}
{"variant": "C150G C169G U176A", "reverse-splicing fitness": 0.00867}
{"variant": "C150G C169G U176C", "reverse-splicing fitness": 0.0077}
{"variant": "C150G C169G U176G", "reverse-splicing fitness": 0.0051}
{"variant": "C150G C169U", "reverse-splicing fitness": 0.0492}
{"variant": "C150G C169A", "reverse-splicing fitness": 0.02}
{"variant": "C150G C169G", "reverse-splicing fitness": 0.0309}
{"variant": "A145C C169G U176G", "reverse-splicing fitness": 0.00875}
{"variant": "A145C C169G U176C", "reverse-splicing fitness": 0.116}
{"variant": "A145C C169G U176A", "reverse-splicing fitness": 0.0744}
{"variant": "A145C C150U C169U U176G", "reverse-splicing fitness": 0.00838}
{"variant": "A145C C150U C169U U176C", "reverse-splicing fitness": 0.0741}
{"variant": "A145C C150U C169U U176A", "reverse-splicing fitness": 0.0513}
{"variant": "C169U U176C", "reverse-splicing fitness": 0.182}
{"variant": "C169U U176A", "reverse-splicing fitness": 0.114}
{"variant": "C169U U176G", "reverse-splicing fitness": 0.0131}
{"variant": "A145U C150A C169U", "reverse-splicing fitness": 0.0521}
{"variant": "A145U C150A C169G", "reverse-splicing fitness": 0.0369}
{"variant": "A145U C150A C169A", "reverse-splicing fitness": 0.0212}
{"variant": "A145G C169G U176A", "reverse-splicing fitness": 0.0818}
{"variant": "A145G C169G U176G", "reverse-splicing fitness": 0.00802}
{"variant": "A145G C169G U176C", "reverse-splicing fitness": 0.14}
{"variant": "A145C C150U C169U", "reverse-splicing fitness": 0.122}
{"variant": "A145C C150U C169G", "reverse-splicing fitness": 0.0825}
{"variant": "A145C C150U C169A", "reverse-splicing fitness": 0.0428}
{"variant": "A145G C169G", "reverse-splicing fitness": 0.302}
{"variant": "A145G C169A", "reverse-splicing fitness": 0.172}
{"variant": "A145G C169U", "reverse-splicing fitness": 0.369}
{"variant": "A145C C150G C169G U176A", "reverse-splicing fitness": 0.0135}
{"variant": "A145C C150G C169G U176C", "reverse-splicing fitness": 0.00959}
{"variant": "A145C C150G C169G U176G", "reverse-splicing fitness": 0.00537}
{"variant": "C150G U176G", "reverse-splicing fitness": 0.0576}
{"variant": "C150G U176C", "reverse-splicing fitness": 0.286}
{"variant": "C150G U176A", "reverse-splicing fitness": 0.219}
{"variant": "A145G C150A C169G U176C", "reverse-splicing fitness": 0.0517}
{"variant": "A145G C150A C169G U176G", "reverse-splicing fitness": 0.00527}
{"variant": "A145G C150A C169G U176A", "reverse-splicing fitness": 0.0321}
{"variant": "A145U C150G U176C", "reverse-splicing fitness": 0.351}
{"variant": "A145U C150G U176A", "reverse-splicing fitness": 0.326}
{"variant": "A145U C150G U176G", "reverse-splicing fitness": 0.108}
{"variant": "A145U C169G", "reverse-splicing fitness": 0.3}
{"variant": "A145U C169A", "reverse-splicing fitness": 0.173}
{"variant": "A145U C169U", "reverse-splicing fitness": 0.407}
{"variant": "A145C C150A C169U", "reverse-splicing fitness": 0.0286}
{"variant": "A145C C150A C169A", "reverse-splicing fitness": 0.0125}
{"variant": "A145C C150A C169G", "reverse-splicing fitness": 0.0208}
{"variant": "A145U C150A U176A", "reverse-splicing fitness": 0.4}
{"variant": "A145U C150A U176G", "reverse-splicing fitness": 0.177}
{"variant": "A145U C150A U176C", "reverse-splicing fitness": 0.363}
{"variant": "A145U C150G", "reverse-splicing fitness": 0.512}
{"variant": "A145U C150A", "reverse-splicing fitness": 0.465}
{"variant": "A145U C150U", "reverse-splicing fitness": 0.943}
{"variant": "C169A U176G", "reverse-splicing fitness": 0.0054}
{"variant": "C169A U176A", "reverse-splicing fitness": 0.0336}
{"variant": "C169A U176C", "reverse-splicing fitness": 0.0638}
{"variant": "A145C C150A C169A U176G", "reverse-splicing fitness": 0.00533}
{"variant": "A145C C150A C169A U176C", "reverse-splicing fitness": 0.00805}
{"variant": "A145C C150A C169A U176A", "reverse-splicing fitness": 0.0107}
{"variant": "A145U C150G C169A", "reverse-splicing fitness": 0.0224}
{"variant": "A145U C150G C169G", "reverse-splicing fitness": 0.0415}
{"variant": "A145U C150G C169U", "reverse-splicing fitness": 0.0635}
{"variant": "A145U C150A C169A U176C", "reverse-splicing fitness": 0.0139}
{"variant": "A145U C150A C169A U176A", "reverse-splicing fitness": 0.014}
{"variant": "A145U C150A C169A U176G", "reverse-splicing fitness": 0.00528}
{"variant": "A145U C150G C169G U176A", "reverse-splicing fitness": 0.0118}
{"variant": "A145U C150G C169G U176G", "reverse-splicing fitness": 0.00509}
{"variant": "A145U C150G C169G U176C", "reverse-splicing fitness": 0.00868}
{"variant": "A145U C169G U176G", "reverse-splicing fitness": 0.00761}
{"variant": "A145U C169G U176C", "reverse-splicing fitness": 0.133}
{"variant": "A145U C169G U176A", "reverse-splicing fitness": 0.0717}
{"variant": "A145G C150G C169A U176A", "reverse-splicing fitness": 0.0133}
{"variant": "A145G C150G C169A U176C", "reverse-splicing fitness": 0.0194}
{"variant": "A145G C150G C169A U176G", "reverse-splicing fitness": 0.00779}
{"variant": "A145U C150U U176C", "reverse-splicing fitness": 0.816}
{"variant": "A145U C150U U176A", "reverse-splicing fitness": 0.908}
{"variant": "A145U C150U U176G", "reverse-splicing fitness": 0.342}
{"variant": "A145G C150A C169U U176C", "reverse-splicing fitness": 0.0583}
{"variant": "A145G C150A C169U U176A", "reverse-splicing fitness": 0.0484}
{"variant": "A145G C150A C169U U176G", "reverse-splicing fitness": 0.00772}
{"variant": "A145C C150U U176G", "reverse-splicing fitness": 0.308}
{"variant": "A145C C150U U176C", "reverse-splicing fitness": 0.596}
{"variant": "A145C C150U U176A", "reverse-splicing fitness": 0.613}
{"variant": "A145C C150G C169A U176G", "reverse-splicing fitness": 0.00491}
{"variant": "A145C C150G C169A U176A", "reverse-splicing fitness": 0.00984}
{"variant": "A145C C150G C169A U176C", "reverse-splicing fitness": 0.0118}
{"variant": "A145G C150A C169A U176G", "reverse-splicing fitness": 0.00608}
{"variant": "A145G C150A C169A U176C", "reverse-splicing fitness": 0.031}
{"variant": "A145G C150A C169A U176A", "reverse-splicing fitness": 0.0203}
{"variant": "C169U", "reverse-splicing fitness": 0.407}
{"variant": "C169G", "reverse-splicing fitness": 0.323}
